Source: PMC10244698, “Polypyrimidine tract binding protein 1 (PTBP1) contains a novel regulatory sequence, the rBH3, that binds the prosurvival protein MCL1” (The Journal of Biological Chemistry, 2023)
Ends that are not written are not given here. * marks the point of attachment. FITC = O=C1OC2(c3ccc(O)cc3Oc3cc(O)ccc32)c2ccc(NC(=S)*)cc21; Ahx = NCCCCCC(=O)O

B1: FITC-labeled BAK peptide derived from its BH3 sequence (peptide)
peptide: {FITC-Ahx}-GQVGRQLAIIGDDINRRYD
notes: also called F-BAKBH3; FITC-BAK; source: synthetic peptide
B2: myeloid cell leukemia-1 (MCL1), residues 163-326 (domain or fragment, human, UniProt Q07820 163-326, looked up)
chain: TPPPAEEEEDELYRQSLEIISRYLREQATGAKDTKPMGRSGATSRKALETLRRVGDGVQRNHETAFQGMLRKLDIKNEDDVKSLSRVMIHVFSDGVTNWGRIVTLISFGAFVAKHLKTINQESCIEPLAESITDVLVRTKRDWLVKQRGWDGFVEFFHVEDLEG
notes: human MCL1, UniProt Q07820, residues 163-326, cloned into pET28a; also called recombinant MCL1; source: E. coli BL21 (DE3), purified (nickel chromatography, gel filtration)
B3: FITC-labeled peptide containing the RRM1 rBH3 sequence (peptide)
peptide: {FITC-Ahx}-NTEEAANTMVNYYTSVTPVLRGQ
notes: stretch of PTBP1 RRM1 with the rBH3 motif (E104-Y114) on the alpha2 helix; also called F-RRM1_(rBH3); FITC-RRM1_(rBH3); source: synthetic peptide (GenScript)
B4: RNA recognition motif 1 (RRM1) of polypyrimidine tract binding protein 1 (PTBP1), residues 55-147 (domain or fragment, human, UniProt P26599 55-147, looked up)
chain: GVPSRVIHIRKLPIDVTEGEVISLGLPFGKVTNLLMLKGKNQAFIEMNTEEAANTMVNYYTSVTPVLRGQPIYIQFSNHKELKTDSSPNQARA
notes: human PTBP1 RRM1, UniProt P26599, residues 55-147, cloned into pET28a; 15N-labelled for the NMR experiment; also called PTBP1-RRM1; recombinant wildtype RRM1 protein; source: E. coli BL21 (DE3), purified (nickel chromatography, gel filtration)

Assays:
[1] = target: B2; test: fluorescence polarisation; competitive FPA: 100 nM MCL1, 10 nM FITC-BAK BH3 peptide, unlabeled RRM1 titrated; 1x PBS pH 7.4, 0.1% DMSO; details: both partners purified
[2] = target: B4; test: fluorescence polarisation; competitive FPA: 50 nM RRM1, 0.5 nM FTSC-labeled RNA from the 3'UTR of MCL1 mRNA, MCL1 titrated; 1x PBS pH 7.4, 1% DMSO, background of tRNA; details: both partners purified
[3] = target: PTBP1 RRM1 (human, UniProt P26599 55-147); test: fluorescence polarization; tRNA background; 0.5 nM RNA; FP: 1x PBS pH 7.4, 1% DMSO, tRNA background, temperature not stated; EMSA: 10 mM Hepes pH 7.3, 20 mM KCl, 1 mM MgCl2, 1 mM DTT, tRNA (10 ug/ml in Methods, 10 ug/uL in Fig S2 legend), room temperature, 1% TBE agarose; details: protein: recombinant; tags: N-terminal His6 (pET28a); label: 3' FTSC (fluorescein-5-thiosemicarbazide); single-stranded, designed as unstructured
[4] = target: B2; test: fluorescence polarisation; direct FPA: 10 nM FITC-RRM1_(rBH3) peptide, recombinant MCL1 titrated; 1x PBS pH 7.4, 1% DMSO; details: both partners purified

B1
binding result [1]: binds

B2
IC50 [2]: 74.6 ± 37.3 nM

ACGCUUCUCUCAGGGAAAAACAUGC (ssRNA) [MCL1 3'UTR 25-mer RNA]
Kd [3]: 16.1 ± 7.6 nM

B3
Kd [4]: < 10 nM

B4
IC50 [1]: 88 ± 3 nM
